This passage reports Km and kcat results from paper PMC6450514, “Pseudomonas aeruginosa esterase PA2949, a bacterial homolog of the human membrane esterase ABHD6: expression, purification and crystallization” (Acta Crystallographica. Section F, Structural Biology …, 2019).

The data set relates to CCCC(=O)Oc1ccc([N+](=O)[O-])cc1. Kind of data set: purified protein. The following applies: 8 nM enzyme, 0.05-1 mM substrate, n-octyl beta-D-glucoside.

Regarding PA2949 (Pseudomonas aeruginosa PAO1), the Km was found to be 170 ± 10 µM and the kcat is 520.4 ± 31.7 s⁻¹.

By Km is commonly meant the concentration of substrate that gives half-maximal velocity. For orientation: kcat means the number of substrate molecules converted per active site and unit of time at saturation.
